The nanobody polyreactivity screen of Harvey et al. (2022)

Assay: yeast display, Sf9 membrane polyspecificity reagent, FACS + sequencing; frameworks hold sequencing errors
Summary of the method: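 Nanobodies from a synthetic yeast display library (Saccharomyces cerevisiae BJ5465), induced 36–48 hours with galactose, were stained 1 hour at 4 °C with 10% biotinylated, detergent-solubilized Sf9 membrane reagent, enriched on streptavidin microbeads, then FACS-sorted. Anti-HA (expression) and streptavidin (reagent binding) fluorescence set low and high (top ~1%) gates. Polyreactivity labels come from the gate of origin. Genes were colony-PCR amplified, MiSeq 2 × 250 sequenced and filtered by CDR length.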

Sequence	polyreactivity (PSR sort gate)
QVQLVESGGGLVQAGGSLRLSCAASGYIFGYNTMGWYRQAPGKERELVAAISKSGGRTYYADSVKGRFTISRDNAKNTVYLQMNSLKPEDTAVYYCAADGWSGKLRYTRYDYWGQGTQVTVSS	high polyreactivity
QVQLVESGGGLVQAGGSLRLSCAASGYIFHLYGMGWYRQAPGKERELVARISYRGGSTYYADSVKGRFTISRDNAMKTVYLQRNSLKPEETAVYYCAAYRRQHIIYNYWGQGTQVSVSS	high polyreactivity
QVQLVESGGGLVQAGGSLRLSCAASGYIFHNYAMGWYIQAPGKERELVAAITRSAGRTYYADSVKGRFTISRDNAKNTVYLQMNSLKPEDTAVYYCNARYGGRFYYCGQGTQVTVSS	high polyreactivity
QVQLVESGGGLVQAGGSLRLSCAASGYIFISYAMGWYRQAPGKEREFVAAITGDGGSTYADSVKGRFSISRDNAKNTVYLQMNSLKPEDTAVYYCAVDGYGGEADYEYDHCGQGTQVTVSS	low polyreactivity
QVQLVESGGGLVQAGGSLRLSCAASGYIFITYAMGWYRQAPGKERELVAAISRRGGRTYYADSVKGRFTISRDNAKNTVYLQMNSLKPEDTAVYYCAADPATSVYGGLNYWGQGTQVTVSS	high polyreactivity
QVQLVESGGGLVQAGGSLRLSCAASGYIFKVNSMGWYRPAPGKERELDADISSNSGSTRYADSVKARFTISRDNAKNTVYLQMNSLKQDDTAVYYCAADGRYWVKPGSPWDRSRYDYWGQGTQVTVSS	low polyreactivity
QVQLVESGGGLVQAGGSLRLSCAASGYIFLGYAMGWYRQAPGKERELVAAISSRGGSTYYADSVKGRFTISRDNAKNTVYLQMNSLKPEDTAVYYCAAYRFSDRAAYGYYDRHYYWGQGTQVTVSS	high polyreactivity
QVQLVESGGGLVQAGGSLRLSCAASGYIFLPNTMGWYRQAPGKERELVAVISKSGTSTYYADSVKGRFTISRDNAKNTVYLQMNSLKPEDTAVYYCNRVYRLTAYGYDYWGQGTQVTLSS	high polyreactivity
QVQLVESGGGLVQAGGSLRLSCAASGYIFNRYVMGWYRQAPGKERELVAAITWRGGTTYADSVKGRFTISRDNAKNTVYLLMNSLKPEDTAVYYCAARRYPFEYDYWGQGTQVTVSS	high polyreactivity
QVQLVESGGGLVQAGGSLRLSCAASGYIFNSNTMGWYRPAPGKERELVAAITSSGGRTNYADSVKGRFTISRDNAKNTVYLQMNSLKPEDTAVYYCATRVYYRAGRYKYDYWGQGTQVTVSS	high polyreactivity
QVQLVESGGGLVQAGGSLRLSCAASGYIFPAYAMGWYRQAPGKERELVAAISWSTGSTYYADSVKGRFTISRDNAKNTVYLQMNSLKPEDTAVYYCAAGRPRRVPDHWYIYYYWGQGTQVTVSS	low polyreactivity
QVQLVESGGGLVQAGGSLRLSCAASGYIFPTYAMGWYRQEPGKERELVAAISISGGDTYYADSVKGRFTISRDNAKNTVYLQMNSLKPEDTAVYYCAAVKYETYRYNYDYWGQGTQVTVSS	high polyreactivity
QVQLVESGGGLVQAGGSLRLSCAASGYIFPWYDMGWYRQAPGKERELVAAISWSGGSTYSADSVKGRFTISRDNAKNTVDLQMNSLKPEDTAVYYCAAYLSHYATRYGYWGHGTQVTVSS	high polyreactivity
QVQLVESGGGLVQAGGSLRLSCAASGYIFPYNAMGWYRQAPGKERELVAAISASGGTTYYADSVKGRFTISRDNAKNTVYLQMNSLKPEDTAVYYCAASFAVTSGHHYEYWGQGTQVTVSS	high polyreactivity
QVQLVESGGGLVQAGGSLRLSCAASGYIFPYYTMGWYRQAPGKERELVAAITIGGSTYYADSVKGRFTISRDNAKNTVYLKMNSLKPEDTAVYYCAAKYYDYLYRYIMEYWGQGTQVTVSS	low polyreactivity
QVQLVESGGGLVQAGGSLRLSCAASGYIFQPYAMGWYRQAPGKERELVAAISWRGGTTYYADSVKGRFTISRDNAKITVYLQMNSLKPEDTAVYDCAKDYYYGLDHYGYWGQGTQVTVSS	low polyreactivity

Sequence	polyreactivity (PSR sort gate)
QVQLVESGGGLVQAGGSLRLSCAASGYIFRLYAMGWYRQAPGKERELVATITASGGTYYADSVKGRFTISRDNAKNTVYLQMNSLKPEDTAVYYCAAAKLRRLSRVRYGYWGQGTQVTVSS	high polyreactivity
QVQLVESGGGLVQAGGSLRLSCAASGYIFRQNAMGWYRQAPGKERELVAAITWSGGSTYYADSVKGRFTISRDNAKNTVYLQMNSLKPEDTAVYYCNAYSYVAIRDGGDYWGQGTQVTVSS	low polyreactivity
QVQLVESGGGLVQAGGSLRLSCAASGYIFRRYAMGWYRQAPGKERELVAAISKSGVSTYYADSVKGRFTISRDNAKNTVYLQMNSLKPEDTAVYYCAASSYTWGEDYWGQGTQVTVSS	high polyreactivity
QVQLVESGGGLVQAGGSLRLSCAASGYIFRSYAMGWYRQAPGKERELVAAITRSGGSTYYADSVKGRFTISRDNAKNTVYLQMNSLKPEDTAVYYCAVLPRGSNGMDYWGQGTQVTVSS	low polyreactivity
QVQLVESGGGLVQAGGSLRLSCAASGYIFRYNAMGWYRQAPGKERELVAAIRATGGSTYYADSVKGRFTISRDNAKNTVSLQMNSLKPEDTAVYYCNAGGQGRTYRYYYWGQGTQVTVSS	high polyreactivity
QVQLVESGGGLVQAGGSLRLSCAASGYIFRYYAMGWYRQAPGKERELVAAISWNGGRTYYADSVKGRFTISRDNAKNTVYLQMNSLKPEDTAVYYCAARYWGDYFTEMNYWGQGTQVTVSS	high polyreactivity
QVQLVESGGGLVQAGGSLRLSCAASGYIFRYYAMGWYRQAPGKERELVAAISWNGGRTYYADSVKGRFTISRDNAKNTVYLQMNSLKPEDTAVYYCNTYWDGAREYDYWGQGTQVTVSS	high polyreactivity
QVQLVESGGGLVQAGGSLRLSCAASGYIFSGYAMGWYRQAPGKERELVAAISSSGGRTYYADSVKGRFTISRDNAKNTVYLQMNSLKPEDTAVYYCAADAVYYHFDYWGQGTQVTVSS	high polyreactivity
QVQLVESGGGLVQAGGSLRLSCAASGYIFSGYAMGWYRQAPGKERELVAAISSSGGRTYYADSVKGRFTISRDNAKNTVYLQMNSLKPEDTAVYYCAARIRTVAHVDYDYWGQGTQVTVSS	high polyreactivity
QVQLVESGGGLVQAGGSLRLSCAASGYIFSVYAMGWYRQAPGKERELVAAISSGGSTYYADSVKGRFTISRDNAKNTVYLQMNSLKPEDTAVYYCAAESEYVYWYYVDYDYWGQGTQVTVSS	high polyreactivity
QVQLVESGGGLVQAGGSLRLSCAASGYIFSYNAMGWYRQAPGKERELVAAITASGGGTYYADSVKGRFTISRDNAKNTVYLQMNSLKPEDTAVYYCAADFNDHYYWYGQDYDYWGQGTQVTVSS	low polyreactivity
QVQLVESGGGLVQAGGSLRLSCAASGYIFTYYAMGWYRQAPGKERELVAAISGSDGNTYYADSVKGRFTISRDNAKKTDYLEMISLKPEDTAVYYCAKSGGLTFRSQRYDYWGQGTQVNVSS	low polyreactivity
QVQLVESGGGLVQAGGSLRLSCAASGYIFVPYAMGWSRQAPGKERELVAAISRGGNTNYADSVKGRFTISRDNAKNTVYLQMNSLKPEDTAVYYCNADLVQYWGRRRWYDYWGQGTQVTVSS	low polyreactivity
QVQLVESGGGLVQAGGSLRLSCAASGYIFVRNAMGWYRQAPGKERELVAAISRTDGTTYYADSVKGRFTISRDNAKNTVYLQMNSLKPEDTAVYYCAADYLRAPYYQYEYWGQGTQVTVSS	low polyreactivity
QVQLVESGGGLVQAGGSLRLSCAASGYIFVYNAMGWYRQAPGKERELVAAITDGGGSTYADSVKGRFTISRDNAKNTVYLQMNSLKPEDTAVYYCAARYSDTTWYVLYYYWGQGTQVTVSS	low polyreactivity
